Results as given in US20050272633A1.

Target: endogenous NIK of mouse embryonic fibroblast cells (mouse) (UniProt Q9WUL6)
Experiment: cell-based or functional assay

Sequence of endogenous NIK of mouse embryonic fibroblast cells (mouse) (Q9WUL6 whole entry): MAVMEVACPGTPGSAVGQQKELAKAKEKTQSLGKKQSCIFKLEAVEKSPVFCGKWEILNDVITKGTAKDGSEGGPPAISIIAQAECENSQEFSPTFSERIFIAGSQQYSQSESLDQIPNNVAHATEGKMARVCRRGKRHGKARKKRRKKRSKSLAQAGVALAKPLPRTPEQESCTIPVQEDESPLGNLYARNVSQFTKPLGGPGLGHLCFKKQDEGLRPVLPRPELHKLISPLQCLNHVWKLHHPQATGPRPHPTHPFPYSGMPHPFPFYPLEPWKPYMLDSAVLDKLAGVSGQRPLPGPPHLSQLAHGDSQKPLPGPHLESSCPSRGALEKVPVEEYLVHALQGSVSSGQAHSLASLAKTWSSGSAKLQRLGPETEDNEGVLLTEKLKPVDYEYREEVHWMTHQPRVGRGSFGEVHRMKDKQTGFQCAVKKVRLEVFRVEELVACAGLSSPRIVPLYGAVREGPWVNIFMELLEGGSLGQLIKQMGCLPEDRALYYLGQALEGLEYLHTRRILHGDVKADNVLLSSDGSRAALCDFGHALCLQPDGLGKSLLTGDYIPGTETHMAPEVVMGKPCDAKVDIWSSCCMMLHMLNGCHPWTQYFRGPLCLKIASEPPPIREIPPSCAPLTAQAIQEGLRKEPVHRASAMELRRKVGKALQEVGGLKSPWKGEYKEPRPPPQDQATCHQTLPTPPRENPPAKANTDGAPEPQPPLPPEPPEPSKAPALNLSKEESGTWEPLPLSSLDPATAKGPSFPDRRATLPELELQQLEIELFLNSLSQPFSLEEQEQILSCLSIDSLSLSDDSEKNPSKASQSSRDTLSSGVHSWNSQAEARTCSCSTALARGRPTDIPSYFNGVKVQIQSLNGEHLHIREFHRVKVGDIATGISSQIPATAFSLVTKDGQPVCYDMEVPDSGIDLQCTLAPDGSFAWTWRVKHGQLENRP

NF-κB activation by LTβ, luciferase reporter assay, mouse embryonic fibroblast cell line [fold]	decrease in NF-κB activation by LTβ, luciferase reporter assay, mouse embryonic fibroblast cell line [%]	Substance
2.5		GST fusion protein with the intracellular domain of cγc (pGSTICcγc) (from UniProt P31785 284-369)
	50	GST-41MDD fusion protein (from UniProt P31785 329-369)
